To fix the notation:
T1: rat APJ receptor (rat, UniProt Q9JHG3 1-377)
T1 sequence (looked up): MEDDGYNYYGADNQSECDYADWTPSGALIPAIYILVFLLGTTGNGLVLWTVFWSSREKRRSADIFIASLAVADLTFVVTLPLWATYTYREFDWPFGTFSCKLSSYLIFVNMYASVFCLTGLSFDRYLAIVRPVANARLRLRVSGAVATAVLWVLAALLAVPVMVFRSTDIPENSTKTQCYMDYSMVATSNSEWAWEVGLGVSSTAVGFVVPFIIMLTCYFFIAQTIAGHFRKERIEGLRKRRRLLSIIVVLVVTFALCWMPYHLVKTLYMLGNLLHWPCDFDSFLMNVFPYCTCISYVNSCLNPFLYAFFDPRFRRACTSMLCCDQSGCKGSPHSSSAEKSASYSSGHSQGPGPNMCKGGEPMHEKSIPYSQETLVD

B1: Apelin polypeptide SEQ ID NO: 418 (peptide)
peptide: Tridecanoyl-[AC4Abu″][AEEA][AEEA]QRP[NMeR][Cha]SHKG[αMeP][Nle]P[Phe(4-Cl)]-OH
modifications: reading uncertain
B2: Apelin polypeptide SEQ ID NO: 458 (peptide)
peptide: XXXQRPRLSHKGPXPF
modifications: {TDA}[AC4Abu][Aeea][Aeea]QRP[NMeArg][BLeu]SHKGP[Nle]P[4-Cl-F]{COOH}
B3: Apelin polypeptide SEQ ID NO: 416 (peptide)
peptide: Tridecanoyl-[AC4Abu″][AEEA][AEEA]QRP[NMeR][Cha]SHKG[Pip′][Nle]P[Phe(4-Cl)]-OH
modifications: reading uncertain
B4: Apelin polypeptide SEQ ID NO: 484 (peptide)
peptide: XXXQRPRLSHKGPXPF
modifications: {TDA}[AC4Abu][Aeea][Aeea]Q[NMehArg]P[NMeArg][aMeLeu]SHKGP[Nle]P[4-Cl-F]{COOH}
B5: Apelin polypeptide SEQ ID NO: 457 (peptide)
peptide: XXXQRPRLSHKGPXPF
modifications: {TDA}[AC4Abu][Aeea][Aeea]QRP[NMeArg][aMeLeu]SHKGP[Nle]P[4-Cl-F]{COOH}
B6: Apelin polypeptide SEQ ID NO: 387 (peptide)
peptide: XXXQRPRLSHKGPXPF
modifications: {TDA}[AC4Abu][Aeea][Aeea]QRP[NMeArg][aMeLeu]SHKG[aMePro][Nle]P[4-Cl-F]{COOH}
B7: Apelin polypeptide SEQ ID NO: 400 (peptide)
peptide: XXXQXPRLSHKGPXPF
modifications: {TDA}[AC4Abu][Aeea][Aeea]Q[Cit]P[NMeArg]LSHKGP[Nle]P[4-Cl-F]{COOH}
B8: Apelin polypeptide SEQ ID NO: 459 (peptide)
peptide: XXXQRPRLSHKGPXPF
modifications: {TDA}[AC4Abu][Aeea][Aeea]QRP[NMeArg][NMeLeu]SHKGP[Nle]P[4-Cl-F]{COOH}
B9: Apelin polypeptide SEQ ID NO: 419 (peptide)
peptide: Tridecanoyl-[AC4Abu][AEEA][AEEA]QRP[NMeR][Cha]SAKG[Oic][Nle]P[Phe(4-Cl)]-OH
SMILES: CCCCCCCCCCCCC(=O)NCCC(C(=O)O)C(=O)NCCOCCOCC(=O)NCCOCCOCC(=O)N[C@@H](CCC(N)=O)C(=O)N[C@@H](CCCNC(=N)N)C(=O)N1CCC[C@H]1C(=O)N(C)[C@@H](CCCNC(=N)N)C(=O)N[C@@H](CC1CCCCC1)C(=O)N[C@@H](CO)C(=O)N[C@@H](C)C(=O)N[C@@H](CCCCN)C(=O)NCC(=O)N1[C@H](C(=O)N[C@@H](CCCC)C(=O)N2CCC[C@H]2C(=O)N[C@@H](Cc2ccc(Cl)cc2)C(=O)O)C[C@@H]2CCCC[C@@H]21
B10: Apelin polypeptide SEQ ID NO: 426 (peptide)
peptide: XXXQRPRLSHKGPXPF
modifications: {TDA}[AC4Abu][Aeea][Aeea]QRP[NMeArg]LSHKGP[Nle][BhPro][4-Cl-F]{COOH}
B11: Apelin polypeptide SEQ ID NO: 408 (peptide)
peptide: Tridecanoyl-[AC4Abu″][AEEA][AEEA]Q[hArg]P[NMeR][Cha]SHKGP[Nle]P[Phe(4-Cl)]-OH
modifications: reading uncertain
B12: Apelin polypeptide SEQ ID NO: 469 (peptide)
peptide: XXXQRPRLSHKGPXPF
modifications: {TDA}[AC4Abu][Aeea][Aeea]QRP[NMeArg]LS[rHis]KGP[Nle]P[4-Cl-F]{COOH}
B13: Apelin polypeptide SEQ ID NO: 456 (peptide)
peptide: XXXQRPRLSHKGPXPF
modifications: {TDA}[AC4Abu][Aeea][Aeea]QrP[NMehArg][aMeLeu]SHKGP[Nle]P[4-Cl-F]{COOH}
B14: Apelin polypeptide SEQ ID NO: 454 (peptide)
peptide: Tridecanoyl-[AC4Abu″][AEEA][AEEA][dQ][hArg][Aib][dR][Cha]SHKG[Oic][Nle]P[Phe(4-Cl)]-OH
modifications: reading uncertain; also: printed as {TDA}[AC4Abu][Aeea][Aeea]q[hArg][Aib]r[Cha]SHKG[Oic][Nle]P[4-Cl-F]{COOH}
B15: Apelin polypeptide SEQ ID NO: 468 (peptide)
peptide: XXXQRPRLSHKGPXPF
modifications: {TDA}[AC4Abu][Aeea][Aeea]QRP[NMeArg]L[aMeS]HKGP[Nle]P[4-Cl-F]{COOH}
B16: Apelin polypeptide SEQ ID NO: 481 (peptide)
peptide: Tridecanoyl-[AC4Abu″][AEEA][AEEA][dR][dQ][hArg]P[hArg][Cha]SHKG[Oic][Nle]P[Phe(4-Cl)]-OH
modifications: reading uncertain; also: printed as {TDA}[AC4Abu][Aeea][Aeea]rq[hArg]P[hArg][Cha]SHKG[Oic][Nle]P[4-Cl-F]{COOH}
B17: Apelin polypeptide SEQ ID NO: 287 (peptide)
peptide: XXXQRPRLSHKGPXPF
modifications: {TDA}[AC4Abu][Aeea][Aeea]QRP[NMeArg]LSHKGP[Nle]P[4-Cl-F]{COOH}
B18: Apelin polypeptide SEQ ID NO: 485 (peptide)
peptide: XXXQRPRLSHKGPXPF
modifications: {TDA}[AC4Abu][Aeea][Aeea]QrP[hArg][aMeLeu]SHKGP[Nle]P[4-Cl-F]{COOH}
B19: Apelin polypeptide SEQ ID NO: 483 (peptide)
peptide: XXXQRPRLSHKGPXPF
modifications: {TDA}[AC4Abu][Aeea][Aeea]Q[hArg]P[NMehArg]LSHKGP[Nle]P[4-Cl-F]{COOH}
B20: Apelin polypeptide SEQ ID NO: 471 (peptide)
peptide: Tridecanoyl-[AC4Abu″][AEEA][AEEA]QRP[NMehArg]LSHKGP[Nle]P[2Nal]-OH
modifications: reading uncertain; also: printed as {TDA}[AC4Abu][Aeea][Aeea]QRP[NMehArg]LSHKGP[Nle]P[2Nal]{COOH}

Starred links: 1 amine or outer side, 2 acyl side, 3 side chain; linkers in the order of their positions; H or OH if unused. Non-standard residues stand in square brackets, D forms with d. Primed or numbered codes have the meaning given here. *: point of attachment. AC4Abu = α-carboxy-4-aminobutyric acid, O=C(C(CCN[*:1])C(=O)[*:3])[*:2]; Oic = O=C(O)[C@@H]1C[C@@H]2CCCC[C@@H]2N1; Phe(4-Cl) = N[C@@H](Cc1ccc(Cl)cc1)C(=O)O; 2Nal = N[C@@H](Cc1ccc2ccccc2c1)C(=O)O; NMehArg = CN[C@@H](CCCCNC(=N)N)C(=O)O; NMeR = CN[C@@H](CCCNC(=N)N)C(=O)O; Tridecanoyl = CCCCCCCCCCCCC(=O)*; hArg = N=C(N)NCCCC[C@H](N)C(=O)O; Cha = N[C@@H](CC1CCCCC1)C(=O)O; αMeP = C[C@@]1(C(=O)O)CCCN1; AC4Abu″ = not defined here; Nle = CCCC[C@H](N)C(=O)O; Pip′ = not defined here; AEEA = NCCOCCOCC(=O)O; Aib = CC(C)(N)C(=O)O

In the assay the target is T1, rat APJ receptor. The experiment in a line: cell-based or functional assay.
Consider B1, for which the “EC50 Rat APJ Receptor (GTPγS assay)” value is 0.253 nM.
To B2 belongs 0.12 nM; to B3, 0.346 nM; to B4, 0.767 nM.
As to B5, the “EC50 Rat APJ Receptor (GTPγS assay)” value amounted to 0.0564 nM.
The same measure for B6: 0.166 nM; for B7: 0.42 nM.
As to B8, the “EC50 Rat APJ Receptor (GTPγS assay)” value stood at 0.23 nM.
On to B9, for which the “EC50 Rat APJ Receptor (GTPγS assay)” value came to 0.379 nM.
On to B10, for which the “EC50 Rat APJ Receptor (GTPγS assay)” value was determined as 0.382 nM.
Take B11: the “EC50 Rat APJ Receptor (GTPγS assay)” value stood at 0.184 nM.
To B12 belongs 1.33 nM; to B13, 0.178 nM.
To B14 belongs 5.35 nM; to B15, 0.165 nM.
To B16 belongs 0.341 nM; to B17, 0.242 nM; to B18, 0.41 nM.
For B19, the “EC50 Rat APJ Receptor (GTPγS assay)” value amounted to 0.229 nM.
Take B20: the “EC50 Rat APJ Receptor (GTPγS assay)” value was 0.0974 nM.

The record behind these values is patent US10941182 (Amgen, dated 2021).
